The record followed here is article PMC11230385.

For the assay, the target named is T1, Aquaporin Z with a C-terminal Strep-tag II (AqpZ-STII) (Escherichia coli), P60844.
T1 chain: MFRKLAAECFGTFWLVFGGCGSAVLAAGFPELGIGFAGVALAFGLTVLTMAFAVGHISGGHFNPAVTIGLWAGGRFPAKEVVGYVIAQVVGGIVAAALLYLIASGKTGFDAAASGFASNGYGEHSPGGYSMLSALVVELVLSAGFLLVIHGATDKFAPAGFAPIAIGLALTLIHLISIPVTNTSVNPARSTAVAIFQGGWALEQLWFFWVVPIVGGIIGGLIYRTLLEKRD
Nature of the assay: native MS. The settings on record: remark: other sources report otherwise.

B1: Aquaporin Z with a C-terminal Strep-tag II (AqpZ-STII), P60844 1-231 (natural protein)
chain: T1 chain
In the case of B1, the stoichiometry N was determined as 4.

What is called stoichiometry N is the number of molecules, sites or subunits per partner or assembly.
